Experimental findings from article PMC4601012 (Scientific Reports, 2015) are described below.

Test [1] has as its target T1, CA/09 H1 HA: hemagglutinin of A/California/7/2009 (H1N1) (Influenza A virus A/California/07/2009 …, UniProt C3W5X2, strain).
T1 construct: source: insect cells, expressed and purified (Supplementary Methods)
Put plainly: ELISA. The following applies: one partner purified.

The target of test [2] is BS/07 H1 HA: hemagglutinin of A/Brisbane/59/2007(H1N1) (Influenza A virus A/Brisbane/59/2007 …, strain). As to the kind of experiment: ELISA.
For test [3], the target named is T1, CA/09 H1 HA: hemagglutinin of …. As to the kind of experiment: SPR. To be noted: both partners purified.

B1: H123#437 scFv (scFv, V domains shown)
VH: QVQLVQSGAEVKKPGSSVKVSCTSSEFMFPAFAISWVRQAPGQGLEWLGGISPMFDHPNYAQKFQGRVTITADQSTRTAYMDLRSLRSEDTAVYYCARSPTYLPSGVFDHWGQGTLVTVSS
VL: QPGLTQPPSVSKGLRQTATLTCTGNSNNVGNQGAAWLQQHQGHPPKLLSYRNNDRPSGISERFSASRSGNTASLTITGLQPEDEADYYCSTWDSSLSAVVFGGGTKLTVL
notes: source: E. coli ER2738, phage-free soluble scFv in filtered culture supernatant; not shown: E-tag, C-terminal, kept
On to B1, for which the “normalized binding affinity (relative to F10 scFv)” value in test [1] was determined as 5.2.

B2: F10 scFv (scFv, V domains shown)
VH: QVQLVQSGAEVKKPGSSVKVSCTSSEVTFSSFAISWVRQAPGQGLEWLGGISPMFGTPNYAQKFQGRVTITADQSTRTAYMDLRSLRSEDTAVYYCARSPSYICSGGTCVFDHWGQGTLVTVSS
VL: B1 VL
notes: not shown: E-tag, C-terminal, kept
Turning to B2, the binding result in test [2] (one partner purified) is “binds”.

B3: H123#437 IgG (antibody, V domains shown)
VH: B1 VH
VL: B1 VL
As for B3, in test [3], the Kd was found to be 91 pM, the koff was determined as 3.52e-05 s⁻¹ and the kon amounted to 386000 M⁻¹ s⁻¹. The binding result in test [2] (both partners purified) is “binds”.

B4: F10 IgG (antibody, V domains shown)
VH: B2 VH
VL: B1 VL
As to B4, in test [3], the Kd is 46 pM, the koff stood at 1.11e-05 s⁻¹ and the kon amounted to 240000 M⁻¹ s⁻¹. In addition, the binding result in test [2] (both partners purified) is on record as “binds”.
